Data taken from patent US20140248360A1, “NANOPARTICLE TUMOUR VACCINES” (MIDATECH LIMITED, priority 2011, published 2014).

What was measured:
[1] = Aggregation and solubility of nanoparticle preparations; format: physicochemical; conditions: for NP formed in repeat production: 75% methanol not 95% in the synthesis stage
Method: Samples were bench spun the supernatant removed and the dark pellet dissolved in 2 ml water, and then transferred to a 10 kDa vivaspin for a total of 4 times 2 ml water washes each of 8 min at 5 Krpm. Nanoparticles (NPs) were removed from the vivaspins and made up to 500 μl with water, they were then subjected to 15 Krpm bench spin to remove any large aggregates.
NP's 2-5 were produced by a variation using 75% methanol not 95% in the synthesis stage.

[2] = biological target: SIINFEKL:K^b complex (SIINFEKL complexed to H-2K^b) on LK^b cells (murine) (UniProt P01901); test: cell-based or functional assay
Sequence of UniProt P01901 (P01901 22-369 limits assumed, one chain of several): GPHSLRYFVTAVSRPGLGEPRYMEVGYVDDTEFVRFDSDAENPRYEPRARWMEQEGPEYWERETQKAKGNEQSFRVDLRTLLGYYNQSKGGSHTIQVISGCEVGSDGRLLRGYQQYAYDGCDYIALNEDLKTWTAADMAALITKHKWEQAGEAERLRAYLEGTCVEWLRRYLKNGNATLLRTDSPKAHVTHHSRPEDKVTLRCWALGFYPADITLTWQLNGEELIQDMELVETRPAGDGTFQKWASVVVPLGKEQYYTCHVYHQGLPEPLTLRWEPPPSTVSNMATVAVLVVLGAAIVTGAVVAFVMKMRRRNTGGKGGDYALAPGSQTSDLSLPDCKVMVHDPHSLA

β-galactosidase measured using a luminescent substrate (B3Z activation); limit of detection as SIINFEKL pulse concentration [2] | Substance | NP formed in repeat production [1] | solubility of NP aggregates in NaOH ([1]; 300 mM NaOH) | aggregation of NP after synthesis ([1]; first production, after 15 Krpm bench spin) | solubility of NP aggregates ([1]; water, 10% acetic acid, PBS, DMSO or DMF)
 | NP 2: gold nanoparticle, GlcC2 corona, peptide ligand SIINFEKL-N-(CH2)2-SH | ‘normal’ NP |  |  | 
 | NP 3: gold nanoparticle, GlcC2 corona, peptide ligand FLSIINFEKL-N-(CH2)2-SH | formed aggregates | total NP solubilisation | large near complete aggregation | not soluble
5 ng/mL | T cell receptor of the SIINFEKL:Kb-specific T hybridoma B3Z (TCR) |  |  |  | 
